# From patent publication US20220348674A1
# What was measured:
# [1] = molecular target: cell surface human CD40 on HEK-CD40 cells (human) (UniProt P25942); test: flow cytometry on HEK-CD40 cells; mAb at 0.56 ug/ml
# [2] = molecular target: cell surface human CD40 on HEK-CD40 cells (human) (UniProt P25942); test: flow cytometry on HEK-CD40 cells; mAb at 12 ug/ml
# [3] = molecular target: CD40 on Ramos-Blue cells (human)
# [4] = molecular target: cell surface human CD40 on HEK-CD40 cells (human) (UniProt P25942); test: flow cytometry on HEK-CD40 cells; mAb at 5 ug/ml
# [5] = molecular target: cell surface human CD40 on HEK-CD40 cells (human) (UniProt P25942); test: flow cytometry on HEK-CD40 cells; mAb at 0.06 ug/ml
# [6] = molecular target: cell surface human CD40 on HEK-CD40 cells (human) (UniProt P25942); test: flow cytometry on HEK-CD40 cells; mAb at 0.007 ug/ml
# [7] = molecular target: cell surface human CD40 on HEK-CD40 cells (human) (UniProt P25942); test: flow cytometry on HEK-CD40 cells; mAb at 0.78 ug/ml (so in the source)
# [8] = molecular target: cell surface human CD40 on HEK-CD40 cells (human) (UniProt P25942); test: flow cytometry, titration on HEK-CD40 cells, CD40 MFI, anti-human IgG secondary antibody
# [9] = molecular target: cell surface human CD40 on HEK-CD40 cells (human) (UniProt P25942); test: flow cytometry on HEK-CD40 cells; mAb at 1.7 ug/ml
# [10] = molecular target: cell surface human CD40 on HEK-CD40 cells (human) (UniProt P25942); test: flow cytometry on HEK-CD40 cells; mAb at 0.02 ug/ml
# Chain of cell surface human CD40 on HEK-CD40 cells (human) (P25942 21-277): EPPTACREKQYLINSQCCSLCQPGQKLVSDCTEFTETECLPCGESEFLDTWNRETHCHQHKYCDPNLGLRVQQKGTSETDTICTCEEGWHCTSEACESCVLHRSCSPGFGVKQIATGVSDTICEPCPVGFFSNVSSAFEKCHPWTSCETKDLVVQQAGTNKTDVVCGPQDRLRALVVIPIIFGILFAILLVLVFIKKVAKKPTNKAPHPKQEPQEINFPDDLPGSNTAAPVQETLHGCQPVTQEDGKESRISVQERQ
# Chain of CP-870,893, IgG2 isotype fully human anti-CD40 mAb (antibody) (VH): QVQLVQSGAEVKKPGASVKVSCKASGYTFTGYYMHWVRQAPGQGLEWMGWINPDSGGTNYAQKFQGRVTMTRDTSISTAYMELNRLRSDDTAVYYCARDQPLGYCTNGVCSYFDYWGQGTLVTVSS
# Chain of CP-870,893, IgG2 isotype fully human anti-CD40 mAb (antibody) (VL): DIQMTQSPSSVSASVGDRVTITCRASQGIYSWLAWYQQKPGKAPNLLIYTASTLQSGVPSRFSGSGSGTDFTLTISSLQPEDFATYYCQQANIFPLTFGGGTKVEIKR
MFI [1],MFI [2],"EC50, w/o PDL1 (Ramos-Blue NFkB-SEAP reporter, OD630, HEK-control cells added) [3] [nM]","EC50, with PDL1 (Ramos-Blue NFkB-SEAP reporter, OD630, HEK-PDL1 cells added) [3] [nM]",MFI [4],MFI [5],MFI [6],MFI [7],EC50 [8] [µg/mL],MFI [9],MFI [10],Substance
18200,24700,2.6,2.67,24500,4590,1150,9840,0.28,23300,2360,"APX005m, humanized anti-CD40 mAb, IgG1 isotype with S267E mutation (antibody)"
6790,23700,0.15,0.12,20900,1530,271,3670,1.58,14100,635,"CP-870,893, IgG2 isotype fully human anti-CD40 mAb (antibody)"
30.7,73.7,,,112,40.2,28.3,32.3,,61.3,40.1,"Human IgG1 isotype control (Bioxell, Catalog BE 0297) (antibody)"
